Here are results for two molecules from patent US20070264679A1, “Method for analyzing the activity of lipoxygenase using a water-soluble substrate” (Chungnam National University Industry Collaboration …, priority 2006, published 2007).

What is called Km is the concentration of substrate that gives half-maximal velocity. In general, Vmax refers to the rate approached at saturating substrate.

Series [1] addresses T1, lipoxygenase (Glycine max, UniProt P08170).
T1 sequence (P08170 1-839): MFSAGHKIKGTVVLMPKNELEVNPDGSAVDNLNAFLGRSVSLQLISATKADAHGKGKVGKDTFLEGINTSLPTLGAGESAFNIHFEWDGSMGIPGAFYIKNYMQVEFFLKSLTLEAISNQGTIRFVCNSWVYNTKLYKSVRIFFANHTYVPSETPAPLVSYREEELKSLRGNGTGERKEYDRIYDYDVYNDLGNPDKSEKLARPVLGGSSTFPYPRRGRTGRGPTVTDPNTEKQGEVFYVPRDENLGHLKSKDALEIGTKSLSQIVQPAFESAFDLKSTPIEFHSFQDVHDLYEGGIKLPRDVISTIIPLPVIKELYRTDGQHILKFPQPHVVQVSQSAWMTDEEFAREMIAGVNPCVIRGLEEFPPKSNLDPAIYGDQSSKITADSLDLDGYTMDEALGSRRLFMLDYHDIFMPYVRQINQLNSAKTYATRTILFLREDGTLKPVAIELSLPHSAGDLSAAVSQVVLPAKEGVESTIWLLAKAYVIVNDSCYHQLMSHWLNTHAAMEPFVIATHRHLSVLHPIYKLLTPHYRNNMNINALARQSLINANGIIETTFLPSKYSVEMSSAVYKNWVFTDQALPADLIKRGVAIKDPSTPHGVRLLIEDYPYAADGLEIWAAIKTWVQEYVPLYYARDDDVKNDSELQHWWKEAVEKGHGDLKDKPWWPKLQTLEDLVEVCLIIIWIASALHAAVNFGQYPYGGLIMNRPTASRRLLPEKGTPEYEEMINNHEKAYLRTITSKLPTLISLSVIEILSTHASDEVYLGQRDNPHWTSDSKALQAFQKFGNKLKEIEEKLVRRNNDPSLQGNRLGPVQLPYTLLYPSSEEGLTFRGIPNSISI
Particulars: Perez-Gilabert et al. 1998; cited from earlier work.

The target of series [2] is T2, Reticulocyte LOX (Oryctolagus cuniculus, UniProt P12530).
T2 construct: purchased Biomol Inc. (Plymouth Meeting, Pa., USA)
T2 sequence (P12530 1-663): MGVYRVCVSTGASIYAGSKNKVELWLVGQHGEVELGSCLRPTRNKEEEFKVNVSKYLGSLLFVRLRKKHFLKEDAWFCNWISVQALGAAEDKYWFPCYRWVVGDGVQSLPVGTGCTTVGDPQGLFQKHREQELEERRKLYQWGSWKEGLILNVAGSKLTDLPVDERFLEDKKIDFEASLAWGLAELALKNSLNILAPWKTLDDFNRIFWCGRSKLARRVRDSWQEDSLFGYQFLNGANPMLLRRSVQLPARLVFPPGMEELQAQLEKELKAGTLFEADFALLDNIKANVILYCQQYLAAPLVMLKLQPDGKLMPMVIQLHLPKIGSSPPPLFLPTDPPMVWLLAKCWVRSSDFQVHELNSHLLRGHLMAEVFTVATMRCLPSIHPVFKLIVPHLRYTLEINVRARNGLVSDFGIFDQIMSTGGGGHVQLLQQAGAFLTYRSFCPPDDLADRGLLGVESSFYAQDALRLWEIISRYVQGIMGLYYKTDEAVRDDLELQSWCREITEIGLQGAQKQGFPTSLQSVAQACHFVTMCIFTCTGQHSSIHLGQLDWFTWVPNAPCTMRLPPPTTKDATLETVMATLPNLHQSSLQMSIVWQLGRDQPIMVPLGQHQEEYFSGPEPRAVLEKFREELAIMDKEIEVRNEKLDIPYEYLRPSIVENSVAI
Put plainly: Kinetics of oxygenation of linoleoylated substrates by reticulocyte LOX. It is filed as biochemical, Rabbit. The conditions noted are these: reticulocyte LOX 8.2 units/ml, 50 mM phosphate buffer pH 7.4, 25° C. An excerpt: Data were expressed as means ±S.D. of results from at least three independent experiments.

Substrate in series [3]: CCCCC/C=C\C/C=C\C/C=C\C/C=C\CCCC(=O)O
Put plainly: Kinetics of oxygenation of arachidonic acid or arachidonoyl-lysophospholipids by soybean LOX-1. Type of series: biochemical. Particulars: other: soybean LOX-1 2.5 units/ml, 50 mM borax buffer pH 9.0, 25° C. Here is the method:
Activities of various LOXs were monitored by measuring the increase in absorbance at 234 nm due to the formation of hydroperoxide (ε234=25,000 M^−1 cm^−1) at 25° C. as described before (Smith et al, J. Biol. Chem. 247 (1972) 1038-1047). One unit is defined as the amount of LOXs that can produce one nanomole of conjugated diene per min. The reaction mixture (500 μl) included reticulocyte LOX (2 units/ml) in 50 mM phosphate buffer (pH 7.4), porcine leukocyte LOX (1 unit/ml) in 100 mM phosphate buffer (pH 7.5) containing 5 mM EDTA and 0.03% Tween 20, or soybean LOX-1 (2.5 units/ml) in 50 mM borax buffer (pH 9.0) at 25° C. The reactions were started by including each substrate (100 μM) into the above reaction mixture.
Reticulocyte LOX (2 units/ml), leukocyte LOX (1 units/ml) or soybean LOX-1 (2.5 units/ml) was incubated with each arachidonoyl derivative substrate of various concentrations as described above. The values of kinetic parameters were obtained according to Lineweaver Burke plot analyses as described before (Barroso et al, J. Chromatogr. B. Analyt. Technol. Biomed. Life. Sci. 814 (2005) 21-28).

Substrate in series [4]: CC/C=C\C/C=C\C/C=C\C/C=C\C/C=C\C/C=C\CCC(=O)O
The series can be described thus: Kinetics of oxygenation of docosahexaenoic acid derivatives by soybean LOX-1. Particulars: other: soybean LOX-1 2.5 units/ml, 50 mM borax buffer pH 9.0, 25° C. Type of series: biochemical. Here is the method:
Soybean LOX-1 (2.5 units/ml) was incubated with docosahexaenoyl-lysoPC, didocosahexaenoyl-lysoPC or docosahexaenoic acid of various concentrations in 500 μl of 50 mM borax buffer (pH 9.0) at 25° C. Values were expressed as means ±S.D. of results from at least three independent experiments.

For `CCCCC/C=C\C/C=C\CCCCCCCC(=O)OC[C@H](COP(=O)([O-])OCC[N+](C)(C)C)OC(=O)CCCCCCC/C=C\C/C=C\CCCCC` [Dilinoleoyl-PC, Dilinoleoyl phosphatidylcholine], the “lipoxygenation rate relative to linoleic acid (times slower)” value in series [1] is reported as “about 4 times”. Also, in series [2], the Vm is 646 ± 20 units/mg. In series [2] (substrate 3-100 μM), the Km was determined as 71.7 ± 6.9 µM.

B1: soybean LOX-1 (Glycine max) (protein)
chain: MFSAGHKIKGTVVLMPKNELEVNPDGSAVDNLNAFLGRSVSLQLISATKADAHGKGKVGKDTFLEGINTSLPTLGAGESAFNIHFEWDGSMGIPGAFYIKNYMQVEFFLKSLTLEAISNQGTIRFVCNSWVYNTKLYKSVRIFFANHTYVPSETPAPLVSYREEELKSLRGNGTGERKEYDRIYDYDVYNDLGNPDKSEKLARPVLGGSSTFPYPRRGRTGRGPTVTDPNTEKQGEVFYVPRDENLGHLKSKDALEIGTKSLSQIVQPAFESAFDLKSTPIEFHSFQDVHDLYEGGIKLPRDVISTIIPLPVIKELYRTDGQHILKFPQPHVVQVSQSAWMTDEEFAREMIAGVNPCVIRGLEEFPPKSNLDPAIYGDQSSKITADSLDLDGYTMDEALGSRRLFMLDYHDIFMPYVRQINQLNSAKTYATRTILFLREDGTLKPVAIELSLPHSAGDLSAAVSQVVLPAKEGVESTIWLLAKAYVIVNDSCYHQLMSHWLNTHAAMEPFVIATHRHLSVLHPIYKLLTPHYRNNMNINALARQSLINANGIIETTFLPSKYSVEMSSAVYKNWVFTDQALPADLIKRGVAIKDPSTPHGVRLLIEDYPYAADGLEIWAAIKTWVQEYVPLYYARDDDVKNDSELQHWWKEAVEKGHGDLKDKPWWPKLQTLEDLVEVCLIIIWIASALHAAVNFGQYPYGGLIMNRPTASRRLLPEKGTPEYEEMINNHEKAYLRTITSKLPTLISLSVIEILSTHASDEVYLGQRDNPHWTSDSKALQAFQKFGNKLKEIEEKLVRRNNDPSLQGNRLGPVQLPYTLLYPSSEEGLTFRGIPNSISI
notes: purchased Sigma-Aldrich Corp (St. Louis, Mo., USA) lipoxidase Type I-B
With B1, in series [3], the Km turned out to be 12.4 µM, the Vmax is 92200 nmol/min/mg and the Vmax/Km was determined as 7.4e+06 µL/min/mg. Further, in series [4], the Km amounted to 16.8 ± 1.4 µM and the Vmax came to 178000 nmol/min/mg.
